Assay results published in the supplement of paper PMC11136658.

System: peptide library, one residue held at a place counted from the Y acceptor
Test: relative phosphorylation of the sub-library (ratio to the mean residue at this position); higher = residue favoured
Outline: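 Within 384-well plates, purified recombinant kinases phosphorylated biotinylated Tyr-centred peptide library mixtures over 90 min using 50 μM ATP spiked with γ-32P-ATP; each mixture fixed one residue at one position from −5 to +5. Streptavidin membrane capture, rinsing, phosphorimaging and ImageQuant gave the intensities. These were normalized per position to the sum of the 18 randomized residues (16 for the Ser/Thr-free library) and multiplied by that number.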

AXL, construct: aa473-end, human, sequence (P30530 473-894, looked up): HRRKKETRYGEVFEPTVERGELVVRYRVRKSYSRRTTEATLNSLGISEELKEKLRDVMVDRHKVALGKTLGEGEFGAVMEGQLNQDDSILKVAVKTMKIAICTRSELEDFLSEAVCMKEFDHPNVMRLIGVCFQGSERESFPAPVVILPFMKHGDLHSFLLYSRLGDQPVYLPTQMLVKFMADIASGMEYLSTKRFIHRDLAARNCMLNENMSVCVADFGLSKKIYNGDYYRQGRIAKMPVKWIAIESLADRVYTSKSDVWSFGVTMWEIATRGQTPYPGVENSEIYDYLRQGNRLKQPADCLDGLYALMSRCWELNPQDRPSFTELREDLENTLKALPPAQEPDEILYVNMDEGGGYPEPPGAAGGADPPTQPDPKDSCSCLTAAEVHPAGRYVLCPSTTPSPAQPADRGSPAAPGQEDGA
BLK, construct: Full length, human, sequence (P51451 whole entry, looked up): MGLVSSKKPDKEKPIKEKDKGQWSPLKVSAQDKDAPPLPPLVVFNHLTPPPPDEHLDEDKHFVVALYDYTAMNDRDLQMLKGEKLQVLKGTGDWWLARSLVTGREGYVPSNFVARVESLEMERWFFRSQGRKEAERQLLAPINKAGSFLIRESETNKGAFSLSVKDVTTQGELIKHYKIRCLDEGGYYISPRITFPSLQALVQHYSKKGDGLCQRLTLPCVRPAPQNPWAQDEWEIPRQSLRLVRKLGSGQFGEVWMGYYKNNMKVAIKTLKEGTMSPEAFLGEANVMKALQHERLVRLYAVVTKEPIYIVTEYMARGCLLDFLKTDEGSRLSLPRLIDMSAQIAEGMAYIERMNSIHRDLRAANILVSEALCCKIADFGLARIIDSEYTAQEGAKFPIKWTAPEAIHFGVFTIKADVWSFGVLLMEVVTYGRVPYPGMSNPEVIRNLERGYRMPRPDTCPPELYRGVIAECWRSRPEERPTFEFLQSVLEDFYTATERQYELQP

AXL, construct: aa473-end, human (from UniProt P30530)
relative phosphorylation
Conditions | at +1 | at +2 | at +3 | at +4 | at +5 | at -1 | at -2 | at -3 | at -4 | at -5
A fixed | 1.58 | 0.759 | 0.52 | 0.973 | 0.953 | 0.707 | 0.976 | 0.87 | 1.16 | 0.962
D fixed | 0.68 | 0.48 | 0.401 | 0.874 | 1.06 | 0.354 | 0.754 | 0.897 | 0.884 | 0.822
E fixed | 1.19 | 0.946 | 0.327 | 1.07 | 1.01 | 0.34 | 0.896 | 1.15 | 1.1 | 0.813
F fixed | 1.12 | 1.43 | 1.61 | 1.03 | 0.877 | 1.51 | 0.6 | 0.911 | 0.948 | 0.965
G fixed | 0.671 | 0.33 | 0.527 | 1.41 | 1.81 | 0.306 | 1.39 | 1.25 | 1.36 | 1.36
H fixed | 1.1 | 0.976 | 1.05 | 1.33 | 0.794 | 1.77 | 1.1 | 1 | 0.905 | 1.08
I fixed | 1.42 | 1.31 | 2.32 | 0.763 | 0.446 | 2.51 | 0.913 | 0.722 | 0.915 | 0.969
K fixed | 0.356 | 0.723 | 0.289 | 0.849 | 0.911 | 0.718 | 1.21 | 1.09 | 1.15 | 1.11
L fixed | 0.971 | 1.33 | 2.33 | 0.84 | 0.548 | 2.03 | 0.762 | 0.792 | 0.986 | 0.913
M fixed | 1.09 | 1.13 | 1.55 | 1.02 | 0.69 | 1.05 | 0.639 | 0.84 | 0.891 | 0.977
N fixed | 0.352 | 0.811 | 0.456 | 0.806 | 1.25 | 1.1 | 1.16 | 1.29 | 0.905 | 1.02
P fixed | 0.183 | 0.751 | 0.892 | 1.29 | 2.23 | 0.518 | 1.1 | 1.25 | 1.09 | 1.18
Q fixed | 1.02 | 0.801 | 0.818 | 1.18 | 1.14 | 0.595 | 1.23 | 0.965 | 1.08 | 1.11
R fixed | 0.457 | 0.845 | 0.425 | 0.928 | 0.64 | 0.549 | 1.14 | 1.12 | 1.19 | 1.26
S fixed | 1.2 | 0.804 | 0.633 | 0.894 | 1.18 | 0.649 | 1.44 | 1.23 | 0.873 | 0.843
T fixed | 1.29 | 0.941 | 0.79 | 0.849 | 1.13 | 0.862 | 1.11 | 1.04 | 0.826 | 0.841
V fixed | 1.72 | 1.2 | 1.45 | 0.744 | 0.6 | 1.27 | 1.05 | 0.785 | 0.862 | 0.827
W fixed | 1.6 | 2.42 | 1.61 | 1.16 | 0.723 | 1.15 | 0.539 | 0.791 | 0.88 | 0.963
pThr fixed | 1.2 | 0.933 | 0.308 | 0.609 | 0.743 | 0.426 | 0.736 | 0.827 | 0.7 | 0.706
pTyr fixed | 1.74 | 2.15 | 0.402 | 0.659 | 0.818 | 1.08 | 0.692 | 1.06 | 0.883 | 0.7

BLK, construct: Full length, human (from UniProt P51451)
relative phosphorylation
Conditions | at +1 | at +2 | at +3 | at +4 | at +5 | at -1 | at -2 | at -3 | at -4 | at -5
A fixed | 2.14 | 1.24 | 0.602 | 0.865 | 0.935 | 0.611 | 1.17 | 0.881 | 1.14 | 1.08
D fixed | 1.33 | 0.554 | 0.236 | 0.56 | 0.668 | 0.87 | 1.64 | 1.7 | 1.68 | 1.46
E fixed | 2 | 1.17 | 0.228 | 0.643 | 0.62 | 1.58 | 2.03 | 2.08 | 1.68 | 1.35
F fixed | 0.463 | 0.799 | 1.9 | 1.14 | 1.02 | 0.648 | 0.466 | 0.996 | 0.777 | 0.846
G fixed | 3.16 | 0.79 | 0.772 | 1.28 | 1.12 | 0.46 | 1.41 | 1.09 | 1.34 | 1.27
H fixed | 0.603 | 0.666 | 0.822 | 1.2 | 1.08 | 0.592 | 0.778 | 1.05 | 0.879 | 0.978
I fixed | 0.558 | 0.865 | 2.22 | 0.721 | 0.713 | 3.23 | 0.629 | 0.607 | 0.833 | 0.764
K fixed | 0.198 | 0.856 | 0.598 | 1.35 | 1.39 | 0.303 | 0.597 | 0.47 | 0.732 | 0.941
L fixed | 0.458 | 0.767 | 2.47 | 1.13 | 0.834 | 1.8 | 0.682 | 0.73 | 0.805 | 0.721
M fixed | 1.11 | 0.83 | 0.927 | 1.16 | 0.938 | 0.995 | 0.605 | 0.853 | 0.913 | 0.816
N fixed | 0.538 | 0.874 | 0.448 | 0.796 | 0.93 | 0.421 | 1.3 | 1.37 | 0.96 | 1.09
P fixed | 0.222 | 1.29 | 0.565 | 0.834 | 1.18 | 0.706 | 1.35 | 0.917 | 1.2 | 1.23
Q fixed | 1.16 | 0.957 | 0.414 | 0.998 | 0.87 | 0.589 | 1.15 | 0.926 | 1.09 | 1.12
R fixed | 0.335 | 1.26 | 1.3 | 1.71 | 1.78 | 0.324 | 0.707 | 0.619 | 0.81 | 0.97
S fixed | 1.15 | 1.49 | 0.608 | 0.921 | 1.06 | 0.454 | 1.16 | 1.09 | 0.833 | 0.968
T fixed | 0.904 | 1.78 | 0.724 | 0.902 | 1.09 | 1.54 | 1.07 | 1.05 | 0.82 | 0.859
V fixed | 0.71 | 1.18 | 1.29 | 0.759 | 0.786 | 2.31 | 0.762 | 0.62 | 0.737 | 0.753
W fixed | 0.956 | 0.629 | 1.88 | 1.04 | 0.981 | 0.564 | 0.478 | 0.951 | 0.784 | 0.793
pThr fixed | 0.782 | 1.66 | 0.255 | 0.373 | 0.472 | 2.81 | 1.61 | 1.16 | 1.21 | 1.35
pTyr fixed | 1.22 | 1.85 | 0.494 | 0.629 | 0.643 | 0.876 | 1.17 | 1.55 | 1.41 | 1.4
